Measured values reported in patent US20250257099A1 (priority 2022, published 2025).

Key:
[1] = molecular target: MERS-CoV spike (S) protein (MERS-CoV) (UniProt K9N5Q8); assay: cell-based or functional assay
[2] = molecular target: SARS-CoV-2 spike (S) glycoprotein (SARS-CoV-2) (UniProt P0DTC2); assay: cell-based or functional assay

Substance: MERS-CoV C-lipopeptide (MERS-CoV S HRC residues 1251-1286, cholesterol-conjugated)
- IC50, plaque-neutralization test, MERS-CoV infection of Vero E6 cells [1]: < 8 nM
- IC50, plaque-neutralization test, SARS-CoV-2 infection of Vero E6 cells [2]: 90 nM
